Results from the DeepSol protein solubility set.

Experiment: soluble on expression in E. coli; label from the status in PepcDB or PDB records

Sequence	soluble on expression in E. coli
MGSDKIHHHHHHMAYFAEIFQIPFEESWGYVTNGGTEGNMFGCYLARELFPDSTLYYSKDTHYSVGKIAKLLQMKSCVIESLDNGEIDYDDLIHKIKTNKESHPIIFANIGTTMTGAIDDIEMIQERLAQIGIMRRDYYIHADAALSGMILPFVDHPQAFSFAHGIDSICVSGHKMIGSPIPCGIVVAKRQNVERISVDVDYISTRDQTISGSRNGHTVLLMWAAIRSQTNLQRRHRIQHCLKMAQYAVDRFQAVGIPAWRNPNSITVVFPCPSEHIWKKHYLATSGNMAHLITTAHHRDTRQIDSLIDDVIFDLQGASKRTVGF	not soluble
MGSDKIHHHHHHMCNSYLEYTAAGVSDLRPYQPGKPLAELERELGIRDAIKLASNENPLGPSPLALAAVREVLPALAQYPEGSAPELRALLARQLDLDPGQFIFGNGSDQVVELAVRALAGPGTEVIVSQYAFAAYAIAAQASGATVRVAPARDYGHDLDAMASLLNANTRLVFIANPNNPTGTYLTADALETFIDSVPSHALVVLDEAYLELMDAADYPDGRRWLRRFGNLMLTRTFSKAYGLAGLRCGYGIGHPDLMAVLERVRQPFNVNTLAQVAAHAALTDRAHLQATLANNRQGIVALRDGLCNLGLTILPPAGNFTAFAVPGGGQRVYEALLLRGVIVRPLTPYGMPDHLRVSVGLPVENQRFLTMLGEVL	not soluble
MGSDKIHHHHHHMDDFDTPVTGNAYGNNTIKEQRTISIANLKEKYSSVISANQFQTVTEETRISGVVVGDDESGNIYKQLIVADETGAIVVGINSTGIYANCPVGQKVVIDCENLNVGGYGMQAQIGTTYKGAIGRMDLAVWLDHVRVINKPQLWYDELIPMELTGAQLKAYDKDLAPVLVMFKDVTIKEADGTATFAPEDLKDGGNGVNRTLVLDDNSTLTFRTSTYANFSTEVMPTGKINVIGILSRYNSTWQIVARTYSDIQRNN	not soluble
MGSDKIHHHHHHMDELLEKAKKVREAWDVLRNATTREKNKAIKKIAEKLDERRKEILEANRIDVEKARERGVKESLVDRLALNDKRIDEMIKACETVIGLKDPVGEVIDSWVREDGLRIARVRVPIGPIGIIYESRPNVTVETTILALKSGNTILLRGGSDALNSNKAIVSAIREALKETEIPESSVEFIENTDRSLVLEMIRLREYLSLVIPRGGYGLISFVRDNATVPVLETGVGNCHIFVDESADLKKAVPVIINAKTQRPGTCNAAEKLLVHEKIAKEFLPVIVEELRKHGVEVRGCEKTREIVPDVVPATEDDWPTEYLDLIIAIKVVKNVDEAIEHIKKYSTGHSESILTENYSNAKKFVSEIDAAAVYVNASTRFTDGGQFGFGAEIGISTQRFHARGPVGLRELTTYKFVVLGEYHVRE	soluble
MGSDKIHHHHHHMDEQIKKAIEAHALAEYPRECCGLVVKTESGEIYVRCRNLAAVPTDQFALASEDYAAAEDMGEIVALVHSHPGASAQPSEADRAMCERSGIEKWVIVSLGVQADGSIGIDDWCEFEPAGYVTRLIGRQFVHGVHDCYAIVRDWYLAERGVLLPDFEREDDWWNDGRSNLYLNHYQDAGFLDVGRGVTLQVGDVLLMQIRSKNDVPNHAGVYLGDGQFLHHMHGRLSARAVWGGMWADCCTTVLRYAGGRK	not soluble
MGSDKIHHHHHHMDEQTHTHLSRRRTLTASAGVLSAGLAGCITSGDTDGDPESGPTVAVASFFSFYDFARKIVADTPITVRNLIPTGLHGHGWEPNASITKEILDADALIHVGPDFQPWVDRAIESLDDDDADTRRINVRDGVELVDLAASLDRDEEGIGQNRGKDPHFWLDPNRAKQSIDNLTEGFVQLAPSHENTLRTNAAAYKSGVLDELDDAYAAIFDRADRDVVQLAAHNAFQYLGTAYDIEMRPLVVNLAASGTVKASDIMDAKQTIDDNDITYIGAAVFETRRPAEQLLSETDVEAYYPVTPYAGVREDWVQQGWGYEEIARNINMPTFKLLLGNAAPDDVGGAEWNATWRNFE	not soluble
MGSDKIHHHHHHMDFRQFEYVKTIAEEKSISRAAERLYISQPSLSQYIIRLENSLGVKLFDRTSATITLTFAGEKYIETARNIINLNNQLTKELNDIANLSKGRVIIGVPSQAGRYILPLVIPKFYKEYPNIEIIVEENIVSELEKMLLEGKIDIAILTLPVQHEKITYESIMNERIFLIAPKKHPICSVDGRISFNFIRNEKFILLKKGQRIRLIVDDIFSRIGAKPNIILEITNLDAAYRMASSGMGFTIVPENVLYLLNTNGKENDFIIDSLEHTLVVAYRKGEYLTRASREFIANLKGVMKMDYNNKNHNSVSYKKIYID	not soluble
MGSDKIHHHHHHMDKALLHFDNSYARDLEGFYAPWQAATAPAPRLLLLNQALAEELGLDSATLDDELGAAIFSGNQVPEGALPLAQAYAGHQFGHFSPQLGDGRALLLGELIDRHGRRRDMQLKGSGRTPFSRGGDGKAALGPVLREYVIGEAMHALGIPTTRALAAVTTGETVRRETWLPGAILTRIAASHIRVGTFQFFAARNENVRVKQLADYTIARHYPPLKGADNPYLELFAAVSAAQAALIARWMLVGFIHGVMNTDNMSIAGETIDYGPCAFMDNYDPETVFSSIDAHGRYAYAHQPLIAQWNLTRFAETLIDLVHPDPDEAARLLTEQLNEFPKLYTRHWLDGMRAKMGLATAEDGDLALAQALLSAMEGQNADFTQVFRGLSAAVRGDPAQVRAHFVNQAPFDLWLAQWQARLAHESATAEARAEAMDQVNPLYIPRNHKVEEALAAATLNQDLTPFKALLAVLERPFAERPGLESYTQPAPEDFGPFKTFCGT	not soluble
MGSDKIHHHHHHMDKDERLHYLDSLERLRGSKVLVYFAYTPLDDSILVPLYEQLKAIGHTEKIDLLLHSYGGAVDTPYKVVMLIREFCNEFGVIVPFVAKSAASMLVLGADEVVMGPISELGPIDPLIKHPIYKELWVPVQAIRYCIDYLQRSIESNPNPELVTGIITPMINKLDPWLIGDYEKALKASHQYAEALLSRYMLKDNPELVPVVTRALTEGYFSHGYPIGRQEAKELGLRVTEAEDELWDVIWSLYRGYEELFSTCDSGDRV	not soluble
MGSDKIHHHHHHMDKIRVIELGSNISAPLVGTILADLGAEVIKVEPPPYGDDRRRVKPEINGISVYFASTNRGKKSVVINLKSDEGYEIFQRLVKTADVIVTNYRPSALKRLKVDYESVKRINPKIIYCSITGFGNLTEEADRPAYDPIILALSGLMDMTGEENPVKFATSISDITTGLLATVMILWALNKGGPTFIDVPMIYTQFYLTLEDAYMYLNTGKVPKRMGSAHRYLVPYQAFKVVDGYIYVAVFNDEQYLKLCKALNREDLCKFDTLQKRVENRDYLIKELGKIFEKNTRDYWVDLLSKADVPVAPVLSLEQAFKKYGNRLVYEIEGVKYIDFPINITSNKSKAPRLGENTKEVLLELGYSEGEINRLAEKGIIMLI	not soluble
MGSDKIHHHHHHMDLDRLQTFLKVVQYGSFQQVAAREYRSQRTVSKQMTQLENELKVTLFDRGQNRIQLTPQGRLFWASAQDIVNNYTTALTELRQFNVPTDQILRVGYFSAFEQRLLLPALYDLKQQHSELQLVVRQGSNEHLAQQVADGSLDLALSINYGRPAVTPESQLTAVPIYHNQMVIGVSRLNPLSRLSQLPPSALATLPILYYSPESSTFLLESFLASAPFIQDYEQIRRVSSAEQMHLLVALNQALAFYPAGLVPTKHDEQVAYLPITDAAQQGYDIVALLKSNRSRPLIAKLVQRLKANAKSDE	not soluble
MGSDKIHHHHHHMDLTHIHPEFRHILGMSDKDRMAFLDEPRWIGYAQANRLLDNLRSLMEKPVRPRMPNLLIVGDSNNGKTTVIRRFQKLHGEGYVNEDAEPVKPVIVSEAPPSADEKGLYIAILERFWTPYRATDSASKLRYQVVHLMRDCHVRILVIDEFHSLLTGTVTKQREVMNAIKLLCNELAIPIVGVGIREAVRVLHTDPQHASRFDVVTLPPWELNPEFQQLVASFERVLPLKKPSLLHQSETVSLLFAISEGNLGNLHRLLVECAVEAIKTGTEKIDKSIIEGKQWLRPTHGIRELV	not soluble
MGSDKIHHHHHHMDLTTAQVSRLISELETRLGTKLIQRSTRQQALTDIGATYAERCRQVISMVDEAEAEVTGTASKPKGRLRVLSMGSFGHHYVFPVMAEFCKHYPELTVEYTTSQYVPDLLAKGVDVSLYLTESLTDSRFVARRIGTIFSVLCASPAYLEKHGVPKSPEDLKNHACLRLVNPSITPDWHLLNANGESYQIDIGGQLIADNPELLLDVVQQDMGVALLPMFSALDAVQNGRLCHILPEWRSPDIGVYTLLPSRHFIDAKTRAWLDWVEEYISPKIEMDASYFYK	not soluble
